We go through 5 molecules from patent US20240294623A1 (SCHOLAR ROCK, published 2024).

Numbering of substitutions follows the chain as printed.

To fix the notation:
B1: Ab4 (antibody, V domains shown)
VH: EVQLVESGGGLVQPGGSLRLSCAASGFTFSSYSMNWVRQAPGKGLEWVSYISSSSSTIYYADSVKGRFTISRDNAKNSLYLQMNSLRAEDTAVYYCARGVLDYGDMLDPWGQGTLVTVSS
VL: DIQMTQSPSSLSASVGDRVTITCQASQDITNYLNWYQQKPGKAPKLLIYDASNLETGVPSRFSGSGSGTDFTFTISSLQPEDIATYYCQQADNHPPWTFGGGTKVEIK
B2: Ab29 (antibody, V domains shown)
VH: B1 VH with G16R, Y32F, S33A, S53P, S54D, S55A, D62G, A97V, G99A
VL: B1 VL
B3: Ab26 (antibody, V domains shown)
VH: B1 VH with Y32F, N35D, S53P, S54D, S55A, S78T
VL: B1 VL
B4: Ab33 (antibody, V domains shown)
VH: B1 VH with Y32F, S53P, S55A, S56D, S78T, R98H
VL: B1 VL
B5: Ab46 (hIgG4) (antibody, V domains shown)
VH: EVQLLESGGGLVQPGGSLRLSCAASGFTFADYAMTWVRQAPGKGLEWVSAISGSGAATYFADSVKGRFTISRDNSKNTLYLQMNSLRAEDTAVYYCARVSSGHWDYDYWGQGTLVTVSS
VL: DIQLTQSPSSLSASVGDRVTITCRASQSISSYLNWYQQKPGKAPKLLIYAASGLESGVPSRFSGSGSGTDFTLTISSLQPEDFATYYCQQTYGVPLTFGGGTKVEIK

T2 sequence (Q9NS15 44-1303 limits assumed, chain 1 of 2): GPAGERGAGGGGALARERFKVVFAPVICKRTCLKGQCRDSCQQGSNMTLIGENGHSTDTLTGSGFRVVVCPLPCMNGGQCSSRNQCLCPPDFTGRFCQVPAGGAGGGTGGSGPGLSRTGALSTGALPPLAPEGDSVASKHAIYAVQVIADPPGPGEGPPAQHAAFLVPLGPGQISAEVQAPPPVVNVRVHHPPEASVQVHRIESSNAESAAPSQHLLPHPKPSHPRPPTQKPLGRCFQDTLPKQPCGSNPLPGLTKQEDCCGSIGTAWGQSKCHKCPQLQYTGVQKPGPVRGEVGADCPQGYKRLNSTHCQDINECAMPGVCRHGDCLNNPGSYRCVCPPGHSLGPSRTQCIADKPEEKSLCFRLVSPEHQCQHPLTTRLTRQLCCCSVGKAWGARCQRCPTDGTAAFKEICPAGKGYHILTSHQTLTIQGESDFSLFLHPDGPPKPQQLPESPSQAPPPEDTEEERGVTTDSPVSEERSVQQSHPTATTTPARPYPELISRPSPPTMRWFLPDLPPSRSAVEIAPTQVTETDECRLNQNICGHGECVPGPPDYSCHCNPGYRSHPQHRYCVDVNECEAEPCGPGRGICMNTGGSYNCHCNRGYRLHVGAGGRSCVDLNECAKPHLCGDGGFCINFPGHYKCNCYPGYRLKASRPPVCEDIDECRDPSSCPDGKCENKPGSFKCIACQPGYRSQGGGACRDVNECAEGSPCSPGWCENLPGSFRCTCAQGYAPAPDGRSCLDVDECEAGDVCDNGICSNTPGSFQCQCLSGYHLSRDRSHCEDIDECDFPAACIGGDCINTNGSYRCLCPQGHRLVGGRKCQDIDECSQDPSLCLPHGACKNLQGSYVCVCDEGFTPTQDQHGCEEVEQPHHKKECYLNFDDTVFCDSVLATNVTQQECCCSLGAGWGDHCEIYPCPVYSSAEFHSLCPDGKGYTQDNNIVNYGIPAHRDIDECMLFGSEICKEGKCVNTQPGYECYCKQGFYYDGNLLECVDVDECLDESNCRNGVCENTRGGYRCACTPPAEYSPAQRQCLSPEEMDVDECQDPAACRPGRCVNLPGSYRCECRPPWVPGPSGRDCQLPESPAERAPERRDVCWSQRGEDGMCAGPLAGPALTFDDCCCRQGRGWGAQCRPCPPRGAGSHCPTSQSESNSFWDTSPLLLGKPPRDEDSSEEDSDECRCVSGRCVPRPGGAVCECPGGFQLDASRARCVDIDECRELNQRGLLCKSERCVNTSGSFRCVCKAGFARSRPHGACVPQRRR
T2 sequence (P01137 30-390 limits assumed, chain 2 of 2): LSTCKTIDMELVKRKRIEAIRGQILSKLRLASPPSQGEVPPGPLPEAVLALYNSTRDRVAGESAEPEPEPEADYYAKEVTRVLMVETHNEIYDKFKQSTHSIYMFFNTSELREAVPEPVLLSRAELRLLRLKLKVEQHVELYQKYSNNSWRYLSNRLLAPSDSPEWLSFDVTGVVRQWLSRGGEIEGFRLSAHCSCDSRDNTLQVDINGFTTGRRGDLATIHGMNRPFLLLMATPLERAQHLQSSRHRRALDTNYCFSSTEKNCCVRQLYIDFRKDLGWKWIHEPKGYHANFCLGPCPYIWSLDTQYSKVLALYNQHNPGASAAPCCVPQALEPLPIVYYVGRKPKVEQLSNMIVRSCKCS
T1 sequence (Q14392 18-627 limits assumed, chain 1 of 2): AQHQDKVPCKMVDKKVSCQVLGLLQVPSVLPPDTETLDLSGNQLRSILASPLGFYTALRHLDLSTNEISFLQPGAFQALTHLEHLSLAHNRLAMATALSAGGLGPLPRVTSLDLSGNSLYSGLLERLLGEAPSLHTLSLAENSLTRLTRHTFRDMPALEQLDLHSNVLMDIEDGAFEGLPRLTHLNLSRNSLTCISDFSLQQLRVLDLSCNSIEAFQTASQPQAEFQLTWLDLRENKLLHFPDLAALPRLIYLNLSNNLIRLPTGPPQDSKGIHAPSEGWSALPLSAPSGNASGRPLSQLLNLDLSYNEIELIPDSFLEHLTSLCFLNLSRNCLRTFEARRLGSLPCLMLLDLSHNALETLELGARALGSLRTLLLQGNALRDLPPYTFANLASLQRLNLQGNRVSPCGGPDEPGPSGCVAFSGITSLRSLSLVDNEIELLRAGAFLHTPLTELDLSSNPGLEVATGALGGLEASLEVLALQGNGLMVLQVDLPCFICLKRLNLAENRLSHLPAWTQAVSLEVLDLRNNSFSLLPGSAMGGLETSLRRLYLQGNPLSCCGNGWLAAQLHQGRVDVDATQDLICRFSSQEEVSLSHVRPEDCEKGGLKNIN
T1 sequence (P01137 30-390 limits assumed, chain 2 of 2): as the sequence (P01137 30-390 limits assumed, chain 2 of 2) above
T4 sequence (Q14766 347-1721 limits assumed, chain 1 of 2): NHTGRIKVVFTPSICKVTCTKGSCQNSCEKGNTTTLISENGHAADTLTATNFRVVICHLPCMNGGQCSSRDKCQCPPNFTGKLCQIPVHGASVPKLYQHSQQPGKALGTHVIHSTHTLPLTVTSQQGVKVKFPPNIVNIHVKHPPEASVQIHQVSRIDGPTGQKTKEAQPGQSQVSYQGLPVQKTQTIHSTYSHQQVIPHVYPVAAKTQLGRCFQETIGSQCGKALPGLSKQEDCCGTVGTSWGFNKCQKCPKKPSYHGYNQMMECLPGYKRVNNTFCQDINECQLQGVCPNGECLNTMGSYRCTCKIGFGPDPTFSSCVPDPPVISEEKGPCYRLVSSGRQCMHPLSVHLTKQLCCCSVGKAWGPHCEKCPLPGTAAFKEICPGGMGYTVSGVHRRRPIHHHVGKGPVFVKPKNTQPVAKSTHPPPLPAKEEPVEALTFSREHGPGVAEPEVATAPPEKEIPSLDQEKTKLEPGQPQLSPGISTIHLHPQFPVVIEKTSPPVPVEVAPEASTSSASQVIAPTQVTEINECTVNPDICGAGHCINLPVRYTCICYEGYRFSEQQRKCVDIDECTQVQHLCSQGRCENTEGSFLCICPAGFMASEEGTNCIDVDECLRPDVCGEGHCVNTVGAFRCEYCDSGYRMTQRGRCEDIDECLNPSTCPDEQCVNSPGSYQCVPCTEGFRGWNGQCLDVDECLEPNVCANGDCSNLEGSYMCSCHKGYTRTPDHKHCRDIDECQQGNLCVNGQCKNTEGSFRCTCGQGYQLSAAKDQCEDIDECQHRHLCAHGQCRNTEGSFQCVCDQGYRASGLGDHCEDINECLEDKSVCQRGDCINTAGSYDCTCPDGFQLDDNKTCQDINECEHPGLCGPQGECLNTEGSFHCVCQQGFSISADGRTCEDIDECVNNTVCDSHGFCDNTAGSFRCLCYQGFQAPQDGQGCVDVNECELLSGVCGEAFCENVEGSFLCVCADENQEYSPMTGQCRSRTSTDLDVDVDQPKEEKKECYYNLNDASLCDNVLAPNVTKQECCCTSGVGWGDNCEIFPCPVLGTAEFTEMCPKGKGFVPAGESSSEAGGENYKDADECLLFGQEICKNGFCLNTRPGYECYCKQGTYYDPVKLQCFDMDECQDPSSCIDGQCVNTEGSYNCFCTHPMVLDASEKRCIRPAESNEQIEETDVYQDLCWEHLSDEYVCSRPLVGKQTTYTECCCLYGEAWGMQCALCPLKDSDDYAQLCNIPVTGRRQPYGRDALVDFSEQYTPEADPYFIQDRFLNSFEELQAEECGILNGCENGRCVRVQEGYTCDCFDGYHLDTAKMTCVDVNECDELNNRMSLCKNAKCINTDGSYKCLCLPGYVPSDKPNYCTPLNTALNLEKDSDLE
T4 sequence (P01137 30-390 limits assumed, chain 2 of 2): as the sequence (P01137 30-390 limits assumed, chain 2 of 2) above

One assay has as its target T1, hGARP-proTGFβ1 (human, UniProt Q14392 18-627; P01137 30-390, limits assumed).
T1 construct: LLC as m1; Same id used for the cell-surface complex in reporter assays; also called human GARP-proTGFβ1 complex; GARP-ProTGFb1
Description: MSD-SET, hIgG4. As for the experimental part:
(§1) For solution equilibrium titration-based binding assays, protein complexes that comprise one of the presenting molecules such as those shown above may be employed as antigen (presenting molecule-TGFβ1 complex, or an LLC). Test antibodies are allowed to form antigen-antibody complex in solution. Antigen-antibody reaction mixtures are incubated to allow an equilibrium to be reached; the amount of the antigen-antibody complex present in the assay reactions can be measured by suitable means well known in the art. As compared to BLI-based assays, SET-based assays are less affected by on/off rates of the antigen-antibody complex, allowing sensitive detection of very high affinity interactions.
Consider B1, for which binding was put at a Kd of 2.5 nM.

The molecule B2 showed a Kd of 0.0055 nM.

B3 showed a Kd of 0.014 nM.

On to B4, for which binding was characterised by a dissociation constant (Kd) of 0.0078 nM.

Another assay has as its target T2, hLTBP3-proTGFβ1 (human, UniProt Q9NS15 44-1303; P01137 30-390, limits assumed).
T2 construct: LLC as m1; Same id used for the cell-made complex in reporter assays; also called human LTBP3-proTGFβ1 complex; LTBP3-ProTGFb1
Kind of assay: MSD-SET, hIgG4. How it is done: as §1
The molecule B1 displayed a Kd of 5.5 nM.

In turn, B2 came in with a Kd of 0.011 nM.

B3 returned an equilibrium dissociation constant (Kd) of 0.023 nM.

B4 displayed a Kd of 0.007 nM.

In the next assay the target is T3, hLRRC33-proTGFβ1 (human, UniProt Q86YC3 19-650; P01137 30-390, limits assumed).
T3 construct: LLC as m1; Same id used for the cell-surface complex in reporter assays; also called human LRRC33-proTGFβ1 complex; LRRC33-ProTGFb1
T3 sequence (Q86YC3 19-650 limits assumed, chain 1 of 2): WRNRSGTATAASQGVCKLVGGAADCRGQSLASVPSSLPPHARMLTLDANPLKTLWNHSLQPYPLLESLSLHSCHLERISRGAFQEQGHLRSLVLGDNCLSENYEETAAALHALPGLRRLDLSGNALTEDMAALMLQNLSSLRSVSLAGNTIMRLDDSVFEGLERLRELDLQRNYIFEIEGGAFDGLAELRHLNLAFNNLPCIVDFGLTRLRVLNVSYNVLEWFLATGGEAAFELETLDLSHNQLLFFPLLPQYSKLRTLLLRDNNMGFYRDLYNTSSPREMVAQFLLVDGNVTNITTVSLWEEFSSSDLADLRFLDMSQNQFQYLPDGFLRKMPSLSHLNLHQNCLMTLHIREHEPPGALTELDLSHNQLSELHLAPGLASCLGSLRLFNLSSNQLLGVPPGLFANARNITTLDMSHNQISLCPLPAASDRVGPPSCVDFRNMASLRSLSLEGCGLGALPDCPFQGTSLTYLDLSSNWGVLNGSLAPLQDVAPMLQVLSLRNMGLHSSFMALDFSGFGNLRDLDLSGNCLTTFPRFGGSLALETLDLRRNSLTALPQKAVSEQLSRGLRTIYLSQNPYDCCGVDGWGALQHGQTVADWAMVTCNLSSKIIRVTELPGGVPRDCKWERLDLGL
T3 sequence (P01137 30-390 limits assumed, chain 2 of 2): as the sequence (P01137 30-390 limits assumed, chain 2 of 2) above
Kind of assay: MSD-SET, hIgG4. As for the experimental part: as §1
B1 registered a Kd of 2.1 nM.

Molecule B2 returned a Kd of 0.043 nM.

B3 displayed a Kd of 0.13 nM.

B4: the affinity, expressed as Kd, was 0.046 nM.

Another assay has as its target T4, hLTBP1-proTGFβ1 (human, UniProt Q14766 347-1721; P01137 30-390, limits assumed).
T4 construct: Large latent complex (LLC): proTGFβ1 dimer disulfide-linked to one presenting molecule; recombinant, purified, biotinylated in BLI/SPR; The same id is used for the complex made by transfected cells in the reporter assays; also called human LTBP1-proTGFβ1 complex; LTBP1-ProTGFb1
Description: MSD-SET, hIgG4. As for the experimental part:
as §1
B1 showed a Kd of 4.6 nM. That is a single-digit nanomolar value.

B2 registered a Kd of 0.012 nM.

B3 displayed a Kd of 0.028 nM.

As for B4, the Kd was 0.011 nM.

The target in another assay is T1, hGARP-proTGFβ1. Description: cell-based or functional assay.
As for B1, the “IC50, reporter cell assay” value was 0.8 nM.

Regarding B2, the “IC50, reporter cell assay” value was 0.3 nM.

For the molecule B3, the “IC50, reporter cell assay” value was determined as 0.3 nM.

For the molecule B4, the “IC50, reporter cell assay” value stood at 0.2 nM.

Another assay deals with T2, hLTBP3-proTGFβ1. Kind of assay: cell-based or functional assay.
As to B1, the “IC50, reporter cell assay” value amounted to 5.6 nM.

As to B2, the “IC50, reporter cell assay” value was found to be 0.8 nM.

On to B3, for which the “IC50, reporter cell assay” value worked out at 0.7 nM.

Consider B4, for which the “IC50, reporter cell assay” value was found to be 1.1 nM.

The next assay deals with T3, hLRRC33-proTGFβ1. Description: cell-based or functional assay.
B1: the “IC50, reporter cell assay” value was found to be 3.5 nM.

For B2, the “IC50, reporter cell assay” value was determined as 0.5 nM.

Regarding B3, the “IC50, reporter cell assay” value is 0.3 nM.

Take B4: the “IC50, reporter cell assay” value came to 0.7 nM.

In another assay the target is T4, hLTBP1-proTGFβ1. Kind of assay: cell-based or functional assay.
Turning to B1, the “IC50, reporter cell assay” value is 5.2 nM.

Consider B2, for which the “IC50, reporter cell assay” value stood at 0.5 nM.

Consider B3, for which the “IC50, reporter cell assay” value is 0.7 nM.

For the molecule B4, the “IC50, reporter cell assay” value was found to be 1.6 nM.

For another assay, the target named is endogenous LTBP-proTGFβ1 of human LN229 cells (human, UniProt P01137 30-390). Kind of assay: cell-based or functional assay.
Chain of endogenous LTBP-proTGFβ1 of human LN229 cells (P01137 30-390): as the sequence (P01137 30-390 limits assumed, chain 2 of 2) above
With B5, the “mAb IC50” value was 0.95 nM.

In the next assay the target is T1, hGARP-proTGFβ1. Kind of assay: BLI (Octet). On the technique in general: BLI is a label-free optical method that tracks binding on a fibre tip over time.
Consider B2, for which the Kd is 0.307 nM.

As for B3, the Kd is 0.625 nM. This Kd is about 2-fold higher than that of the molecule before.

B4 displayed a Kd of 0.265 nM.

In another assay the target is T2, hLTBP3-proTGFβ1. Kind of assay: BLI (Octet).
Regarding B2, the Kd amounted to 0.121 nM.

As for B3, binding was characterised by a dissociation constant (Kd) of 0.173 nM.

Turning to B4, binding was characterised by a dissociation constant (Kd) of 0.111 nM. This Kd is about 1.6-fold lower than that of the molecule before.

For another assay, the target named is T3, hLRRC33-proTGFβ1. Kind of assay: BLI (Octet).
With B2, the Kd was determined as 0.302 nM. This lies in the sub-nanomolar range.

In turn, B3 gave a Kd of 0.36 nM.

Regarding B4, the Kd came out at 0.339 nM.

The next assay deals with T4, hLTBP1-proTGFβ1. Description: BLI (Octet).
B2: the dissociation constant Kd is 0.189 nM.

With B3, binding was put at a Kd of 0.221 nM.

As to B4, binding was put at a Kd of 0.179 nM.

A word on the Kd: it is a measure of binding affinity in units of concentration. A low value points to tighter binding.
